# T1: human C2 D269A (human, UniProt P06681 21-752)
# T1 sequence: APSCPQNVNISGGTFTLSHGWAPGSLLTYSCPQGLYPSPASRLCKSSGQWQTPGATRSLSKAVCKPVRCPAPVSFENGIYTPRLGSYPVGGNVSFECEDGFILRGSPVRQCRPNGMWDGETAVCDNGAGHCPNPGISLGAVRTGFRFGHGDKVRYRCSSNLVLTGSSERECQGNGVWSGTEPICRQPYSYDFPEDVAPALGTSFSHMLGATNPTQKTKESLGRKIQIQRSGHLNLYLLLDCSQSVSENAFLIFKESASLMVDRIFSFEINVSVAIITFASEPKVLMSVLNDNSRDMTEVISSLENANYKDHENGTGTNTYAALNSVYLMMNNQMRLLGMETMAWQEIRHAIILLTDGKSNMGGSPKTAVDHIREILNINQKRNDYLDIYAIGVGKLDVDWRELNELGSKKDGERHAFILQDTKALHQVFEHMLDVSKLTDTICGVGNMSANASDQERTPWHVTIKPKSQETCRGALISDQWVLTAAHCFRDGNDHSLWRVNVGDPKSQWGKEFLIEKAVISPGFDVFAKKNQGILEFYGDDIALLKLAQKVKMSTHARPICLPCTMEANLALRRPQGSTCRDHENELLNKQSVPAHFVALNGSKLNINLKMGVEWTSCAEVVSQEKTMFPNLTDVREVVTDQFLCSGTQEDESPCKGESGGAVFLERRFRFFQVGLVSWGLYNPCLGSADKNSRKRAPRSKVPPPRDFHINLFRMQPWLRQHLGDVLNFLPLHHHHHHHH
# T2: human C2 D404A (human, UniProt P06681 21-752)
# T2 sequence: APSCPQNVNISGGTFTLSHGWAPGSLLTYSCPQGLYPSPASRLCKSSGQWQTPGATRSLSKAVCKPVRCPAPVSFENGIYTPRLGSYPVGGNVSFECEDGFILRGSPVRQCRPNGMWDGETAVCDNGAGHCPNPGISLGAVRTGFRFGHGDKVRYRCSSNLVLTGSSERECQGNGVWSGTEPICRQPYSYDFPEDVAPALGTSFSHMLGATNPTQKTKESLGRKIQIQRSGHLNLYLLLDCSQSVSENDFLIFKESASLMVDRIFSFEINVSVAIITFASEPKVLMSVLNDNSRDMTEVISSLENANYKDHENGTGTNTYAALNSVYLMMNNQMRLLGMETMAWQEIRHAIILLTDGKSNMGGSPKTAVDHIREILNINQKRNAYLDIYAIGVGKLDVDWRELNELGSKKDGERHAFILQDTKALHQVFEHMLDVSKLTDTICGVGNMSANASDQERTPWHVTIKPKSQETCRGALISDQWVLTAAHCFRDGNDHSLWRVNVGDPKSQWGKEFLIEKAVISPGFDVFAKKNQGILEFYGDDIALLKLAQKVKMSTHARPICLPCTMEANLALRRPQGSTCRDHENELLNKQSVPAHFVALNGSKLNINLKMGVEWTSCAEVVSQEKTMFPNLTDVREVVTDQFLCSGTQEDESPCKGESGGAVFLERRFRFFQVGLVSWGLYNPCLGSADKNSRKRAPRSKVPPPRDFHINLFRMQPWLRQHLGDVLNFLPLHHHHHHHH
# T3: human C2 G432A (human, UniProt P06681 21-752)
# T3 sequence: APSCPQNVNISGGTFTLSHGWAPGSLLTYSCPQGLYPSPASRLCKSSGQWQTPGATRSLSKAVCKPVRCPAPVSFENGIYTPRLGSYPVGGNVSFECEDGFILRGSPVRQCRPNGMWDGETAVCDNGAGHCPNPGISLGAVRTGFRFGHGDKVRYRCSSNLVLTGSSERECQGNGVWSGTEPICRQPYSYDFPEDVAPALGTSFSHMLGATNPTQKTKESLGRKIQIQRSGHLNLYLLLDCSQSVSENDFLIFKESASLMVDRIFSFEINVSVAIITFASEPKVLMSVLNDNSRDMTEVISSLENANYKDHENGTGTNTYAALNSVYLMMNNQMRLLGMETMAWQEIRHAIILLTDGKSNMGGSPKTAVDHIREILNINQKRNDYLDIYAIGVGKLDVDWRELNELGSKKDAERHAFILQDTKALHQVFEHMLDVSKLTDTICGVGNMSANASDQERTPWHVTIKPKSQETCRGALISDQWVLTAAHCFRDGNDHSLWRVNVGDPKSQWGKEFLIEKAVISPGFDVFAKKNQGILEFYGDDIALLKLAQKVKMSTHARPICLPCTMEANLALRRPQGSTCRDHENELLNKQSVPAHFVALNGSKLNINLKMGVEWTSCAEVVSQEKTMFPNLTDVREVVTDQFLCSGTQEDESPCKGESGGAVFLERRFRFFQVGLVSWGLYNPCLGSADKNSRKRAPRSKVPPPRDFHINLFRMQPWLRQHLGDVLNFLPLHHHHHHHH
# T4: human C2 G427A (human, UniProt P06681 21-752)
# T4 sequence: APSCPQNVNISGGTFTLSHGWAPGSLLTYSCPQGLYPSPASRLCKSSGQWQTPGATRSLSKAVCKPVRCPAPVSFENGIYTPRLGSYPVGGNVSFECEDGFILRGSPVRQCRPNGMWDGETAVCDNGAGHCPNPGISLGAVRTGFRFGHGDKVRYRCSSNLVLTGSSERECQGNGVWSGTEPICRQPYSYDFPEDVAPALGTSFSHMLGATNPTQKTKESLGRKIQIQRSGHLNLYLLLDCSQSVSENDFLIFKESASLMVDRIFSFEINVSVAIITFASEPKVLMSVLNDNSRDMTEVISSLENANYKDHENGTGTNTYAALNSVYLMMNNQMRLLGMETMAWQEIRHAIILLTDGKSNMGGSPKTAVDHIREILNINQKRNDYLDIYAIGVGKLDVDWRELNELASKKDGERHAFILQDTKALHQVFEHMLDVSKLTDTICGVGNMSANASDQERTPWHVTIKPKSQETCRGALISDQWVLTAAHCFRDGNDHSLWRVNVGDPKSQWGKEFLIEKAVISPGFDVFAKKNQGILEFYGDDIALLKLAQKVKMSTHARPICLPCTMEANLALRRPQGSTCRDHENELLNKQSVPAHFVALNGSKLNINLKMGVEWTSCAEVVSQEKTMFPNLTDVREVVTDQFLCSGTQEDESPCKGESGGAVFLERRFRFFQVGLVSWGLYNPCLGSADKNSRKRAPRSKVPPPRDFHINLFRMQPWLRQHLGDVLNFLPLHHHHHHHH
# How the values were obtained:
# Experiment in all cases: SPR, antibody captured, C2 as analyte;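 further: biacore at 37 °C, anti-C2 mAbs held by immobilised goat anti-human IgG, C2 alanine or serine mutants injected, double-referenced sensorgrams fitted to a 1:1 kinetic or steady-state model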
# human C2 D269A = molecular target: T1, human C2 D269A
# human C2 D404A = molecular target: T2, human C2 D404A
# human C2 G432A = molecular target: T3, human C2 G432A
# human C2 G427A = molecular target: T4, human C2 G427A
binder,measurement,setting,value
"RF16-242 (antibody, human IgG4 S228P, lambda, V domains shown, pH-dependent anti-C2 antibody from a phage display library) VH: EVQLLQSGAEVKKPGESLKISCKGSGYSFTSYWIGWVRQMPGKGLEWMGIIYPGDSDTRYSPSFQGQVTISADKSISTAYLQWSSLKASDTAMYYCARRGHYGDYFDYWGQGTLVTVSS VL: SYELTQPPSVSVSPGQTARITCSGDALPKKYAYWYHQKSGQAPVLVIYEDRRRPSEIPERFSGSSSGTMATLTITGAQVEDEGVYFCYSRDRAGNQRVFGGGTQLTVLG",Kd,human C2 D269A,12.9 nM
same,Kd,human C2 D404A,16.4 nM
same,Kd,human C2 G432A,8.8 nM
same,Kd,human C2 G427A,4 nM

# Source: US20220332804A1 (CSL INNOVATION, published 2022)
